This is an account of results in article PMC10591475.

This test addresses protein fusion 1, SpyCatcher03 fused to supercharged green fluorescent protein, conjugated with polymer surfactant ([SC3-scGFP][S]). As to the kind of experiment: SDS-PAGE of covalent (isopeptide) SpyCatcher-SpyTag coupling; 10 uM of each protein mixed in 20 mM Tris-HCl, 700 mM NaCl, pH 7.5, 37 °C, monitored over 24 h, in triplicate; product estimated from the pixel intensity of the bands (GelAnalyzer).

Regarding “protein fusion 2, fibronectin-binding protein CshA fused to mCherry with SpyTag03 on the C-terminus (CshA-mCh-ST3)”, the percent of coupling product formed after 15 s is 40% and the yield of coupling product after 24 h is 80%.

As for “protein fusion 3, mCherry fused to SpyTag03 (mCh-ST3)”, the percent of coupling product formed after 15 s was 60% and the yield of coupling product after 24 h was 60%.
